Reference: paper PMC2613655 (Journal of molecular biology, 2008)

Molecular target: the molecule itself
Assay: SAXS

B1: YSY (other, yeast, UniProt P25491 1-105, looked up)
chain: MVKETKFYDILGVPVTATDVEIKKAYRKCALKYHPDKNPSEEAAEKFKEASAAYEILSDPEKRDIYDQFGEDGLSGAGGAGGFPGGGFGFGDDIFSQFFGAGGAQNEDAFNIFSQFFGGSSPFGGADDSGFSFSSYPSGGGAGMGGMPGGMGGMHGGMGGMPGGFRSASSSPTYPEEETVQVNLPVSLEDLFVGKKKSFKIGRKGPHGASEKTQIDIQLKPGWKAGTKITYKNQGDYNPQTGRRKTLQFVIQEKSHKSFKRDGDDLVYEAEIDLLTAIAGGEFALEHVSGDWLKVGIVPGEVIAPGMRKVIEGKGMPIPKYGGYGNLIIKFTIKFPENHFTSEENLKKLEEILPPRIVPAIPKKATVDECVLADFDPAKYNRTRASRGGANYDSDEEEQGGEGVQCASQ
- stoichiometry N: 2

B2: SYS (other, yeast, UniProt P25294 1-121, looked up)
chain: MVKETKLYDLLGVSPSANEQELKKGYRKAALKYHPDKPTGDTEKFKEISEAFEILNDPQKREIYDQYGLEAARSGGPSFGPGGPGGAGGAGGFPGGAGGFSGGHAFSNEDAFNIFSQFFGGAGGAQRPRGPQRGKDIKHEISASLEELYKGRTAKLALNKQILCKECEGRGGKKGAVKKCTSCNGQGIKFVTRQMGPMIQRFQTECDVCHGTGDIIDPKDRCKSCNGKKVENERKILEVHVEPGMKDGQRIVFKGEADQAPDVIPGDVVFIVSERPHPNFKRDGDDLIYTLPLSFKESLLGFSKTIQTIDGRTLPLSRVQPVQPSQTSTYPGQGMPTPKNPSQRGNLIVKYKVDYPISLNDAQKRAIDENF
- stoichiometry N: 2

B3: Sis1 (natural protein, yeast, UniProt P25294 1-352, looked up)
chain: MVKETKLYDLLGVSPSANEQELKKGYRKAALKYHPDKPTGDTEKFKEISEAFEILNDPQKREIYDQYGLEAARSGGPSFGPGGPGGAGGAGGFPGGAGGFSGGHAFSNEDAFNIFSQFFGGSSPFGGADDSGFSFSSYPSGGGAGMGGMPGGMGGMHGGMGGMPGGFRSASSSPTYPEEETVQVNLPVSLEDLFVGKKKSFKIGRKGPHGASEKTQIDIQLKPGWKAGTKITYKNQGDYNPQTGRRKTLQFVIQEKSHPNFKRDGDDLIYTLPLSFKESLLGFSKTIQTIDGRTLPLSRVQPVQPSQTSTYPGQGMPTPKNPSQRGNLIVKYKVDYPISLNDAQKRAIDENF
- stoichiometry N: 2

B4: Ydj1 (natural protein, yeast, UniProt P25491 1-409, looked up)
chain: MVKETKFYDILGVPVTATDVEIKKAYRKCALKYHPDKNPSEEAAEKFKEASAAYEILSDPEKRDIYDQFGEDGLSGAGGAGGFPGGGFGFGDDIFSQFFGAGGAQRPRGPQRGKDIKHEISASLEELYKGRTAKLALNKQILCKECEGRGGKKGAVKKCTSCNGQGIKFVTRQMGPMIQRFQTECDVCHGTGDIIDPKDRCKSCNGKKVENERKILEVHVEPGMKDGQRIVFKGEADQAPDVIPGDVVFIVSERPHKSFKRDGDDLVYEAEIDLLTAIAGGEFALEHVSGDWLKVGIVPGEVIAPGMRKVIEGKGMPIPKYGGYGNLIIKFTIKFPENHFTSEENLKKLEEILPPRIVPAIPKKATVDECVLADFDPAKYNRTRASRGGANYDSDEEEQGGEGVQCASQ
- stoichiometry N: 2
